Assay results as given in patent publication US9364516B2, “Treatment of fibrosis-related disorders using fibronectin binding proteins and polypeptides” (priority 2010, dated 2016).

What was measured:
[1] = tested on: fibronectin matrix assembly; assay: Inhibition of fibronectin matrix assembly in cell culture; format: cell-based; settings: cell culture experiments
C57/Bl6 mice = assay: Myocardial infarction by permanent coronary ligation; format: in vivo, mouse
Method: C57/B16 male mice (12 wks) underwent permanent coronary ligation injury. pUR4 or control peptide (III-11C or del29) was delivered (25 mg/kg/day) in randomized fashion immediately following induction of EKG-verified MI, then once daily via IP injection for 6 days. Serial, investigator-blind echocardiography for 4 weeks was followed by sacrifice; hearts were excised, weighed, and prepared for histological processing. […] FIG. 14B show the % fractional shortening (FS) in control (III-11C, n=8) and pUR4 (n=9) groups.
The therapeutic benefit of pUR4 mediated inhibition of fibronectin polymerization was investigated in a mouse model of myocardial infarction (MI). Male C57/Bl6 mice underwent permanent coronary artery ligation injury, verified at time of surgery by EKG S-T elevation. pUR4 or III-11C were administered via i.p. injection immediately following ligation. Animals subsequently received once daily IP injection for 6 days, and were followed for 4 weeks total. Serial, investigator blind echocardiography assessed cardiac function at baseline, 2 weeks, and 4 weeks.

[2] = 25 mg/kg/day IP, one week of treatment, up to 4 weeks post-MI
[3] = echocardiography post-MI, p<0.05

B1: pUR4: 49-mer peptide derived from the bacterial F1 adhesin, His tagged, SEQ ID NO:1; class I fibronectin polymerization inhibitor (peptide)
chain: MRGSHHHHHHGSKDQSPLAGESGETEYITEVYGNQQNPVDIDKKLPNETGFSGNMVETEDTKLN
modifications: His tag; Bacterial adhesin derived peptide pUR4
**Q.** Which “concentration effective at inhibiting fibronectin matrix assembly” value [1] does the source give for B1 here?
**A.** Its value is 50 to 100 nM.

**Q.** And the “cardiac function (% fractional shortening)” value (C57/Bl6 mice; [2])?
**A.** The value was “preserved”.

**Q.** What about the “cardiac hypertrophy (heart weight to body weight ratio)” value (C57/Bl6 mice; [2]) of the same molecule?
**A.** Its value is “reduced”.

**Q.** And the “fibronectin deposition within the infarcted area and remote myocardium” value (C57/Bl6 mice; 4 weeks post-MI)?
**A.** The value was “reduced”.

**Q.** And the “collagen and fibronectin deposition post-MI” value (C57/Bl6 mice; FIGS. 15 and 16)?
**A.** Its value is “reduced”.

**Q.** What about the end systolic diameter (C57/Bl6 mice; [3]) of the same molecule?
**A.** Its end systolic diameter is 2.91±0.27.

**Q.** And the end-diastolic diameter (C57/Bl6 mice; [3])?
**A.** The end-diastolic diameter was 4.12±0.22.

**Q.** What about the “cardiac remodeling, infarct size and infarct expansion” value (C57/Bl6 mice; histology 4 weeks post-MI) of the same molecule?
**A.** The value was “reduction”.
